Measurements published in PMC8998802.

Molecular target: CaVβ2a residues 203 to 425, His-tagged
Experiment: MST

| Substance | Kd [nM] |
| --- | --- |
| AID-CaV2.1 peptide | 18.3 to 93 |
| AID-CaV2.2 peptide | 12 to 208 |
